This is an account of results in patent US20240272176A1, “SINGLE DOMAIN ANTIBODY SPECIFIC FOR PHOSPHORYLATED H2AX AND ITS USES” (UNIVERSITE DE STRASBOURG, priority 2021, published 2024).

Experiment [1] addresses T1, γ-H2AX (histone H2AX phosphorylated at serine 139) in drug-treated H1299 or U2OS cells or their extracts (human, UniProt P16104 1-143, phosphorylation of serine at position 139 (S139)).
T1 construct: Endogenous nuclear protein of H1299 and U2OS cells (fixed, living, or nuclear/histone extracts), not on the cell surface; also called gammaH2AX; γ-H2AX foci
Nature of the experiment: mCherry fluorescence in transfected H1299 cells after CSK wash. On the procedure:
Thus, despite their solubility in mammalian cells, these reagents cannot be transfected into cells to detect with precision γ-H2AX after drug treatment likely due to too high chromobody expression levels.
For the analysis by classical immunofluorescence microscopy, the transfected or transduced cells were fixed with 4% paraformaldehyde for 20 minutes and, after permeabilization with 0.2% Triton X100 for 5 min, they were incubated with mAb 3F4 or VHH preparations diluted in PBS containing either 10% fetal calf serum or 2% BSA. Where indicated, the cells were treated with CSK-100 modified buffer (100 mM NaCl, 300 mM sucrose, 3 mM MgCl₂, 10 mM HEPES pH 6.8, 1 mM EGTA, and 0.2% Triton X-100) for 5 minutes prior to fixation. […] Where indicated, Alexa 568 labelled-C6B molecules were used. The labelling of the purified bivalent C6 equipped with a cysteine residue at the C-terminus was performed essentially as previously described (Shaner, N.C. et al.; Nat. Biotechnol. 2004, 22, 1567-1572). Briefly, purified protein in 0.1 M KH₂PO₄ pH 6.5, 150 mM NaCl, 1 mM EDTA, 250 mM sucrose was mixed with a 1.2 molar amount of Alexa Fluor 568 maleimide derivative (ThermoFisher Scientific). […] The amount of fluorophore per bivalent C6 in the flow-through was calculated by spectrophotometry with a Nanodrop 2000 device (ThermoFisher Scientific). […] The signal was recorded with a Leica DFC350FX camera. […]

Another experiment concerns the target T2, γ-H2AX in H1299 cells (Homo sapiens, UniProt P16104).
T2 construct: endogenous in cells; host or cells: H1299
Nature of the experiment: Chromobody expression by transient transfection in H1299 cells with CSK buffer wash prior to fixation. As to conditions: transfected H1299 cells. It counts as cell-based. The source says:
The pβA-scFv-eGFP, a derivative of pDRIVE-hβ-actin (Rinaldi, A.-S. et al.; Exp. Cell Res. 2013, 319, 838-849, doi:10.1016/j.yexcr.2013.01.011) was modified by PCR to insert in frame to the scFv the E6 tag and the mCherry protein using E6T-HindIII-For/E6T-HindIII-Rev and mCherry-For/mCherry-Rev primer pairs, respectively. This vector which carries unique NcoI and SpeI restriction sites was used to sub-clone the VHH variants as described above, thereby generating pβA-C6-E6T-mCherry, pβA-C6M-E6T-mCherry, pβA-C6B-E6T-mCherry and pβA-C6BM-E6T-mCherry.
The day before transfection, 8×10^4 cells were plated in 12-well culture plates containing glass coverslips. […]
For the analysis by classical immunofluorescence microscopy, the transfected or transduced cells were fixed with 4% paraformaldehyde for 20 minutes and, after permeabilization with 0.2% Triton X100 for 5 min, they were incubated with mAb 3F4 or VHH preparations diluted in PBS containing either 10% fetal calf serum or 2% BSA. […] The amount of fluorophore per bivalent C6 in the flow-through was calculated by spectrophotometry with a Nanodrop 2000 device (ThermoFisher Scientific). […] The signal was recorded with a Leica DFC350FX camera. […] For the measurement of the nuclear fluorescence intensity, the images of microscopy fields were acquired with the 20× objective. […]

B1: C6-mCherry chromobody (expressed in transfected H1299 cells) (other, not shown: small tags and cut ends)
VHH: MADVQLVESGGGLVQAGDSLRLSCAASGLTFSRYAMGWFRQAPGNEREFVAVITASGRTTLYADSVKGRFTISRDNAKNTVALQMQSLKPEDTAVYYCAADYGTSRYTRRQSEYEYWGQGTQVTVSSAAA
notes: Expressed under the β-actin promoter from pβA-C6-E6T-mCherry; junctions not spelled out; also called C6 chromobody; C6 nanobody-mCherry
As for B1, in experiment [1], the binding result was “no binding”.

B2: C6-mCherry: C6 coding region fused in frame to mCherry, expressed by transfection (protein)
VHH: B1 VHH
modifications: left off: small tags and cut ends
notes: C6 coding region fused in frame to mCherry, expressed by transfection
As to B2, the “nuclear chromobody signal after CSK treatment” value was “entirely washed off” with γ-H2AX in H1299 cells; “lost in both drug-treated and untreated cells” with γ-H2AX in H1299 cells (listed as C6 chromobody).
